The record followed here is paper PMC4704560, “Biophysical Characterization of Nucleophosmin Interactions with Human Immunodeficiency Virus Rev and Herpes Simplex Virus US11” (PLoS ONE, 2015).

B1: NPM1 histone and RNA-binding domains (NPM1^HRBD, aa 120-294), tag cleaved (domain or fragment, UniProt P06748 120-294, looked up)
chain: EEDAESEDEEEEDVKLLSISGKRSAPGGGSKVPQKKVKLAADEDDDDDDEEDDDEDDDDDDFDDEEAEEKAPVKKSIRDTPAKNAQKSNQNGKDSKPSSTPRSKGQESFKKQEKTPKTPKGPSSVEDIKAKMQASIEKGGSLPKVEAKFINYVKNCFRMTDQEAIQDLWQWRKSL
notes: also called NPM^HRBD; source: E. coli (BL21(DE3), pLysS BL21(DE3), CodonPlusRIL or BL21(Rosetta)), purified
B2: NPM1 histone binding domain (NPM1^HBD, aa 120-241), tag cleaved (domain or fragment, UniProt P06748 120-241, looked up)
chain: EEDAESEDEEEEDVKLLSISGKRSAPGGGSKVPQKKVKLAADEDDDDDDEEDDDEDDDDDDFDDEEAEEKAPVKKSIRDTPAKNAQKSNQNGKDSKPSSTPRSKGQESFKKQEKTPKTPKGP
notes: source: E. coli (BL21(DE3), pLysS BL21(DE3), CodonPlusRIL or BL21(Rosetta)), purified
B3: HIV-1 Rev full-length (Rev^FL, aa 1-116), tag cleaved (natural protein)
chain: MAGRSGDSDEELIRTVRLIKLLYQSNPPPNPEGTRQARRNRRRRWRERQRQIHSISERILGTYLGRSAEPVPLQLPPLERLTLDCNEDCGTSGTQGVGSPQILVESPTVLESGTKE
B4: NPM1 oligomerization domain (NPM1^OD, aa 1-122), tag cleaved (domain or fragment, UniProt P06748 1-122, looked up)
chain: MEDSMDMDMSPLRPQNYLFGCELKADKDYHFKVDNDENEHQLSLRTVSLGAGAKDELHIVEAEAMNYEGSPIKVTLATLKMSVQPTVSLGGFEITPPVVLRLKCGSGPVHISGQHLVAVEED
notes: as for B2

For one data set, the target named is FITC-labelled CIGB-300. As to the kind of experiment: fluorescence polarisation; increasing amounts of NPM1 variants, GST-Rev, GST-US11 or GST titrated into 0.1 uM FITC-labelled CIGB-300; 25 C; 30 mM Tris/HCl pH 7.5, 150 mM NaCl, 5 mM MgCl2, 1 mM TCEP; quadratic ligand binding equation.
Data set [1] deals with HSV-1 US11 full-length (US11^FL, aa 1-152), tag-free (HSV-1) (UniProt P04487). Kind of data set: ITC; 1.2 mM NPM1^FL titrated into 60 uM US11^FL; both treated with RNase A; 25 C; apparent Kd; endothermic. On the technique in general: Isothermal titration calorimetry measures the heat released or taken up as one component is titrated into another.
The target is the same in data set [2]. Kind of data set: SEC-MALS; aSEC (Superdex 200 10/300) with MALS/RI of NPM1^OD, US11^FL and their mixture, RNase A treated; 30 mM Tris-HCl pH 7.5, 150 mM NaCl, 5 mM MgCl2, 3 mM DTT. (In general: Size exclusion chromatography separates by hydrodynamic size, large species first.)
Data set [3] deals with B3. Kind of data set: ITC; NPM1 variants titrated into Rev^FL (tags cleaved); 25 C; 30 mM Tris-HCl pH 7.5, 150 mM NaCl, 5 mM MgCl2, 1 mM TCEP; VP-ITC. Conditions: both partners purified.
Data set [4] has as its target B2. The description is as above. Particulars: both partners purified.
In data set [5] the target is B4. The description is as above. Particulars: both partners purified.
Data set [6] has as its target T1, NPM1 full-length (NPM1^FL, aa 1-294), tag cleaved (UniProt P06748 1-294).
T1 construct: source: E. coli (BL21(DE3), pLysS BL21(DE3), CodonPlusRIL or BL21(Rosetta)), purified
The data set is described as above. Conditions: both partners purified.

In data set [7] the target is B1. The description is as above. Particulars: both partners purified.
Data set [8] concerns the molecule itself. Kind of data set: SEC-MALS; aSEC (Superdex 200 10/300) with MALS/RI of NPM1^OD, US11^FL and their mixture, RNase A treated; 30 mM Tris-HCl pH 7.5, 150 mM NaCl, 5 mM MgCl2, 3 mM DTT.

On to “NPM1 full-length (NPM1^FL, aa 1-294), tag cleaved (from UniProt P06748 1-294) (natural protein)”, for which the Kd with FITC-labelled CIGB-300 was 1.4 µM; in data set [1], 4 µM.
Regarding “NPM1 oligomerization domain (NPM1^OD, aa 1-122), tag cleaved (from UniProt P06748 1-122) (domain or fragment)”, in the data set with FITC-labelled CIGB-300, the Kd stood at 6.6 µM. Further, the stoichiometry N (US11^FL monomer per NPM1^OD pentamer) in data set [2] was determined as 1.
Turning to B1, in data set [3], the dH is -3.23 ± 0.31 kcal/mol and the stoichiometry N (as a rule, a count of units in the complex or per binding partner) came out at 0.76 sites.
The corresponding values for B2 are -1.71 ± 0.2 kcal/mol and 0.85 sites.
For B3, the Kd in data set [4] is 5.8 µM; in [5], 0.013 µM; in data set [6] it was 0.41 µM; in data set [7] it was 18 µM.
As to B4, in data set [3], the dH was -3.79 ± 0.11 kcal/mol and the “stoichiometry N” value is 0.94 sites. Further, the “stoichiometry N” value in data set [8] was 5.
